What was measured:
BACH1DBD = BACH1DBD (UniProt O14867 511-627); test: EMSA; apparent; homodimer concentration; 150 mM NaCl, 50 mM HEPES pH 7.9, 10% glycerol, 1 mM TCEP, 1 mM DTT, 2 mM MgCl2; 3 nM DNA; TEV and 3C 50 ug/mL each, 4 h 25 °C; competition then O/N 4 °C; gels 4 °C in 1X TBE; conditions: protein: recombinant; tags: C-terminal 3C-6xHis; chain copies: 2; label: 5' fluorescein on forward strand; blunt
NRF2DBD = molecular target: T1, NRF2DBD (UniProt Q16236 451-567); test: EMSA; apparent; homodimer; 150 mM NaCl, 50 mM HEPES pH 7.9, 10% glycerol, 1 mM TCEP, 1 mM DTT, 2 mM MgCl2; 3 nM DNA; TEV and 3C 50 ug/mL each, 4 h 25 °C; competition then O/N 4 °C; gels 4 °C in 1X TBE; conditions: protein: recombinant; tags: C-terminal 3C-6xHis; chain copies: 2; label: 5' fluorescein on forward strand; blunt
T1 sequence: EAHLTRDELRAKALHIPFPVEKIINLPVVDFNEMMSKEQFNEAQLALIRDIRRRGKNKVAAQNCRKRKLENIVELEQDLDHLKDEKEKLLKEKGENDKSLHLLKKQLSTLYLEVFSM

sMafGDBD = sMafGDBD (UniProt O15525 1-162); test: as above; conditions: protein: recombinant; tags: N-terminal 6xHis-TEV; chain copies: 2; label: 5' fluorescein on forward strand; blunt

Sequence of BACH1DBD (O14867 511-627): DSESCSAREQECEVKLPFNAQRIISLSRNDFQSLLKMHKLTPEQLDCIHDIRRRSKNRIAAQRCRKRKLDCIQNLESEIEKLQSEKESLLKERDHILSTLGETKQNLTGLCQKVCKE

B1: HMOX1 CsMBE 30-mer (dsDNA)
DNA 1: CTCGGGACCGTGACTCAGCAGGAAAAACAC
DNA 2: GTGTTTTTCCTGCTGAGTCACGGTCCCGAG
Kd (BACH1DBD): ~802 nM | Kd (NRF2DBD): ~590 nM | Kd (sMafGDBD): ~203 nM

Reference: paper PMC12561426, “Dissecting the Interplay Between NRF2 and BACH1 at CsMBEs”
